Source: patent publication US20160274129

Target: T1, α-fructosyl-valyl-histidyl-leucyl-threonyl-proryl-glutamic acid
T1 chain: VHLTPE

Protein | αF6P oxidation activity (crude enzyme; αFVH oxidation activity = 100) (relative (αFVH = 100)) | αF6P/αFV | αF6P/αFVH | αF6P oxidation activity ratio (crude enzyme; CFP-T7-H2 = 100) (relative (CFP-T7-H2 = 100)) | Specific activity (U/mg), 1 mM αF6P, purified enzyme [U/mg] | also measured
CFP-T7-H3 (protein) MTSNRADTRVIVVGGGGTIGSSTALHLVRSGYAPANITVLDTFEIPSAQSAGHDLNKIMGIALRNKVDLQMSLEARQMWKEDELFQPFFHNTGRMDCEHTPEGIEDLKKFYQALHDAGAGLEKTHAWLDNEDEILSKMPLLQRDQIQGWKAIWSQDGGWLAAAKAINAIGQFLKERGVKFGFGGAGSFKQPLFDDEGTTCIGVETADGTKYYADKVVLAAGAWSPTLVDLEDQCCSKAWVYAHIQLTPEEAAEYKGVPVVYNGEFGFFFEPDEFGVIKVCDEFPGFSRFKEHQPYGAPSPKRISVPRSHAKHPTDTYPDASEVSIKKAIATFLPRFQDKELFNRALCWCTDTADAALLMCEHPKWKNFILATGDSGHSFKILPNVGKYVVELIEGRLPEEMAYQWRWRPGGDALKSRRAAPPKDLADMPGWKHDPKL | 0.0298 | 0.000205 | 0.000298 |  |  | 
CFP-T7-H2-62N (protein) MTSNRADTRVIVVGGGGTIGSSTALHLVRSGYAPANITVLDTFEIPSAQSAGHDLNKIMGINLRNKVDLQMSLEARQMWKEDELFQPFFHNTGRMDCEHTPEGIEDLKKLYQALHDAGAGLEKTHAWLDNEDEILSKMPLLQRDQIQGWKAIWSQDGGWLAAAKAINAIGQFLKERGVKFGFGGAGSFKQPLFDDEGTTCIGVETADGTKYYADKVVLAAGAWSPTLVDLEDQCCSKAWVYAHIQLTPEEAAEYKGVPVVYNGEFGFFFEPDEFGVIKVCDEFPGFSRFKEHQPYGAPSPKRISVPRSHAKHPTDTYPDASEVSIKKAIATFLPRFQDKELFNRALCWCTDTADAALLMCEHPKWKNFILATGDSGHSFKILPNVGKYVVELIEGRLPEEMAYQWRWRPGGDALKSRRAAPPKDLADMPGWKHDPKL |  |  |  | 120 |  | 
CFP-T7-H6 (protein) MTSNRADTRVIVVGGGGTIGSSTALHLVRSGYAPANITVLDTFEIPSAQSAGHDLNKIMGIDLRNKVDLQMSLEARQMWKEDELFQPFFHNTGRMDCEHTPEGIEDLKKLYQALHDAGAGLEKTHAWLDNEDEILSKMPLLQRDQIQGWKAIWSQDGGWLAAAKAINAIGQFLKERGVKFGFGGAGSFKQPLFDDEGTTCIGVETADGTKYYADKVVLAAGAWSPTLVDLEDQCCSKAWVYAHIQLTPEEAAEYKGVPVVYNGEFGFFFEPDEFGVIKVCDEFPGFSRFKEHQPYGAPSPKRISVPRSHAKHPTDTYPDASEVSIKKAIATFLPRFQDKELFNRALCWCTDTADAALLMCEHPKWKNFILATGDSGHSFKILPNVGKYVVELIEGRLPEEMAYQWRWRPGGDALKSRRAAPPKDLADMPGWKHDPKL | 3 | 0.00347 | 0.03 | 513 |  | 
CFP-T7-H2-62Q (protein) MTSNRADTRVIVVGGGGTIGSSTALHLVRSGYAPANITVLDTFEIPSAQSAGHDLNKIMGIQLRNKVDLQMSLEARQMWKEDELFQPFFHNTGRMDCEHTPEGIEDLKKLYQALHDAGAGLEKTHAWLDNEDEILSKMPLLQRDQIQGWKAIWSQDGGWLAAAKAINAIGQFLKERGVKFGFGGAGSFKQPLFDDEGTTCIGVETADGTKYYADKVVLAAGAWSPTLVDLEDQCCSKAWVYAHIQLTPEEAAEYKGVPVVYNGEFGFFFEPDEFGVIKVCDEFPGFSRFKEHQPYGAPSPKRISVPRSHAKHPTDTYPDASEVSIKKAIATFLPRFQDKELFNRALCWCTDTADAALLMCEHPKWKNFILATGDSGHSFKILPNVGKYVVELIEGRLPEEMAYQWRWRPGGDALKSRRAAPPKDLADMPGWKHDPKL |  |  |  | 11 |  | 
CFP-T7-H2-62E (protein) MTSNRADTRVIVVGGGGTIGSSTALHLVRSGYAPANITVLDTFEIPSAQSAGHDLNKIMGIELRNKVDLQMSLEARQMWKEDELFQPFFHNTGRMDCEHTPEGIEDLKKLYQALHDAGAGLEKTHAWLDNEDEILSKMPLLQRDQIQGWKAIWSQDGGWLAAAKAINAIGQFLKERGVKFGFGGAGSFKQPLFDDEGTTCIGVETADGTKYYADKVVLAAGAWSPTLVDLEDQCCSKAWVYAHIQLTPEEAAEYKGVPVVYNGEFGFFFEPDEFGVIKVCDEFPGFSRFKEHQPYGAPSPKRISVPRSHAKHPTDTYPDASEVSIKKAIATFLPRFQDKELFNRALCWCTDTADAALLMCEHPKWKNFILATGDSGHSFKILPNVGKYVVELIEGRLPEEMAYQWRWRPGGDALKSRRAAPPKDLADMPGWKHDPKL |  |  |  | 21 |  | 
CFP-T7-H4 (protein) MTSNRADTRVIVVGGGGTIGSSTALHLVRSGYAPANITVLDTFEIPSAQSAGHDLNKIMGIALRNKVDLQMSLEARQMWKEDELFQPFFHNTGRMDCEHTPEGIEDLKKYYQALHDAGAGLEKTHAWLDNEDEILSKMPLLQRDQIQGWKAIWSQDGGWLAAAKAINAIGQFLKERGVKFGFGGAGSFKQPLFDDEGTTCIGVETADGTKYYADKVVLAAGAWSPTLVDLEDQCCSKAWVYAHIQLTPEEAAEYKGVPVVYNGEFGFFFEPDEFGVIKVCDEFPGFSRFKEHQPYGAPSPKRISVPRSHAKHPTDTYPDASEVSIKKAIATFLPRFQDKELFNRALCWCTDTADAALLMCEHPKWKNFILATGDSGHSFKILPNVGKYVVELIEGRLPEEMAYQWRWRPGGDALKSRRAAPPKDLADMPGWKHDPKL | 0.0341 | 0.000319 | 0.000341 |  |  | 
Cc95FX (protein) MAPSRANTSVIVVGGGGTIGSSTALHLVRSGYTPSNITVLDAYPIPSSQSAGNDLNKIMGIRLRNKVDLQLSLEARQMWREDDLFKEYFHNTGRLDCAHGEEGLADLRQAYQALLDANAGLEETTEWLDSEDEILKKMPLLSRDQIKGWKAVYSQDGGWLAAAKAINAIGEYLRAQGVKFGFGGAGSFKQPLLAEGVCIGVETVDGTRYYADKVVLAAGAWSPTLVELHEQCVSKAWVYGHIQLTPEEAAEYKNSPVVYNGDVGFFFEPNEHGVIKVCDEFPGFTRFKMHQPFGAKAPKRISVPRSHAKHPTDTIPDASEKSIRKAIATFLPKFTEKELFNRHLCWCTDTADAALLICEHPEWKNFVLATGDSGHSFKLLPNIGKHVVELLEGTLADDLAHAWRWRPGSGDALKSRRSAPAKDLADMPGWKHDDVVKSKL | 0 | 0 | 0 |  |  | 
Cc95FX-62D/63H/106K/110L/113K/353S (protein) MAPSRANTSVIVVGGGGTIGSSTALHLVRSGYTPSNITVLDAYPIPSSQSAGNDLNKIMGIDHRNKVDLQLSLEARQMWREDDLFKEYFHNTGRLDCAHGEEGLAKLRQLYQKLLDANAGLEETTEWLDSEDEILKKMPLLSRDQIKGWKAVYSQDGGWLAAAKAINAIGEYLRAQGVKFGFGGAGSFKQPLLAEGVCIGVETVDGTRYYADKVVLAAGAWSPTLVELHEQCVSKAWVYGHIQLTPEEAAEYKNSPVVYNGDVGFFFEPNEHGVIKVCDEFPGFTRFKMHQPFGAKAPKRISVPRSHAKHPTDTIPDASEKSIRKAIATFLPKFTEKELFNRHLCWCTDTADSALLICEHPEWKNFVLATGDSGHSFKLLPNIGKHVVELLEGTLADDLAHAWRWRPGSGDALKSRRSAPAKDLADMPGWKHDDVVKSKL | 237 | 0.0144 | 2.37 |  |  | 
PnFX (protein) MAPSRANTSVIVVGGGGTIGSSTALHLVRSGYTPSNVTVLDAYPIPSSQSAGNDLNKIMGVSLRNPVDLQLALEARQMWNEDELFKKFFHNTGRLDCAHGEKDIADLKSGYQALVDAGLDATNEWLDSEDEILKRMPLLSRDQIKGWKAIFSKDGGWLAAAKAINAVGEYLRDQGVRFGFYGAGSFKAPLLAEGVCIGVETVDGTRYYADKVVLAAGAWSPTLVELHEQCVSKAWVYGHIQLTPEEAARYKNSPVVYNGDVGFFFEPNEHGVIKVCDEFPGFTRFKMHQPFGAKAPKRISVPRSHAKHPTDTIPDASDVSIRRAIATFMPQFKNKKMFNQAMCWCTDTADAALLICEHPEWKNFVLATGDSGHSFKLLPNIGKHVVELLEGTLADDLAHAWRWRPGSGDALKSRRSAPAKDLADMPGWNHDKPRANL |  |  |  |  | 0.0091 | 
PnFX-62D/63H/106K/110L/113K/351S (protein) MAPSRANTSVIVVGGGGTIGSSTALHLVRSGYTPSNVTVLDAYPIPSSQSAGNDLNKIMGVDHRNPVDLQLALEARQMWNEDELFKKFFHNTGRLDCAHGEKDIAKLKSLYQKLVDAGLDATNEWLDSEDEILKRMPLLSRDQIKGWKAIFSKDGGWLAAAKAINAVGEYLRDQGVRFGFYGAGSFKAPLLAEGVCIGVETVDGTRYYADKVVLAAGAWSPTLVELHEQCVSKAWVYGHIQLTPEEAARYKNSPVVYNGDVGFFFEPNEHGVIKVCDEFPGFTRFKMHQPFGAKAPKRISVPRSHAKHPTDTIPDASDVSIRRAIATFMPQFKNKKMFNQAMCWCTDTADSALLICEHPEWKNFVLATGDSGHSFKLLPNIGKHVVELLEGTLADDLAHAWRWRPGSGDALKSRRSAPAKDLADMPGWNHDKPRANL |  |  |  |  | 0.667 | 
PnFX-62D/106K/110L/113K (protein) MAPSRANTSVIVVGGGGTIGSSTALHLVRSGYTPSNVTVLDAYPIPSSQSAGNDLNKIMGVDLRNPVDLQLALEARQMWNEDELFKKFFHNTGRLDCAHGEKDIAKLKSLYQKLVDAGLDATNEWLDSEDEILKRMPLLSRDQIKGWKAIFSKDGGWLAAAKAINAVGEYLRDQGVRFGFYGAGSFKAPLLAEGVCIGVETVDGTRYYADKVVLAAGAWSPTLVELHEQCVSKAWVYGHIQLTPEEAARYKNSPVVYNGDVGFFFEPNEHGVIKVCDEFPGFTRFKMHQPFGAKAPKRISVPRSHAKHPTDTIPDASDVSIRRAIATFMPQFKNKKMFNQAMCWCTDTADAALLICEHPEWKNFVLATGDSGHSFKLLPNIGKHVVELLEGTLADDLAHAWRWRPGSGDALKSRRSAPAKDLADMPGWNHDKPRANL |  |  |  |  | 0.125 | fold of specific activity on αF6P against PnFX before mutation: specific activity on αF6P was elevated by 13.7 fold
AnFX-61D/62H/101K/105K/109L/112K/355S (protein) MTPRANTKIIVVGGGGTMGSSTALHLLRAGYTPSNITVLDTCPIPSAQSAGYDLNKIMGIDHRNKPDLQLSLEALDMWKNDPLFKPFFHNVGMIDVSSTEKGIEKLRKLYQKLLDAGIGLEKTNFMLESEDEILAKAPHFTQEQIKGWKGLFCGDGGWLAAAKAINAIGQFLKEQGVKFGFGGAGTFKKPLFADAHEKTCIGVETVDGTKYYADKVVLAAGAWSSTLVDLEEQCVSKAWVFAHIQLTPAEAAAYKNTPVIYDGDYGFFFEPNENGIIKVCDEFPGFTHFKMHQPYGSPAPKPISVPRSHAKHPTDTYPHASEVTIKKAINRFLPRFNDKELFNRAMCWCTDTADSNLLVCEHPRWKGFYLATGDSGHSFKLLPNIGKHVVELLEERLESVFKDAWRWRPGSGDALKSRRAAPAKDLADMPGWRNEAKM |  |  |  |  | 0.283 | 
